This is an account of results in patent EP4803549A1 (Leads Biolabs Inc., dated 2026).

The Kd is the equilibrium constant for the complex coming apart. Low readings indicate a tighter complex, high ones a looser complex. In general, koff refers to the first-order rate constant of dissociation. A word on the kon: it is the rate constant with which the complex forms. A lower kon goes with slower complex formation.

Where only a bound is given, the exact number is not on record here.

Assay [1] addresses T1, human BCMA protein expressed on the cell surface (human, UniProt Q02223 1-184).
T1 construct: whole, on cells; also called CHO-K1-huBCMA; CHOK1-huBCMA
T1 sequence (looked up): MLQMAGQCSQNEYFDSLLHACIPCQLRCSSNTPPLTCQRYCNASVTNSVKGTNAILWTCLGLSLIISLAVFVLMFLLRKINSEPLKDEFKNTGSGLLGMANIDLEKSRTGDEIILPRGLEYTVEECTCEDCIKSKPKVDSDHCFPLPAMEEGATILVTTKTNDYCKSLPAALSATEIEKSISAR
The experiment in a line: flow cytometry on CHOK1-huBCMA cells. (In general: In flow cytometry, cells or beads pass a laser one at a time.)

In assay [2] the target is T2, human BCMA-His protein (ACRO, Cat#: BCA-H522y) (human, UniProt Q02223 1-54).
T2 construct: Bought protein; also called Human BCMA protein; huBCMA-his
T2 sequence: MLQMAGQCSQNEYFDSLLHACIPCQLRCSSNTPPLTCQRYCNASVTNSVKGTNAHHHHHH
Put plainly: BLI (ForteBio Octet RED96e), antibody on AHC sensor, 100 nM human BCMA-His, 1:1 model. For orientation: BLI is a label-free optical method that tracks binding on a fibre tip over time.

In assay [3] the target is T3, human GPRC5D protein expressed on the cell surface (human, UniProt Q9NZD1 1-345).
T3 construct: NP_061124.1 (NCBI) and Q9NZD1 (UniProt) are printed; also called CHO-K1-huGPRC5D
T3 sequence (Q9NZD1 whole entry): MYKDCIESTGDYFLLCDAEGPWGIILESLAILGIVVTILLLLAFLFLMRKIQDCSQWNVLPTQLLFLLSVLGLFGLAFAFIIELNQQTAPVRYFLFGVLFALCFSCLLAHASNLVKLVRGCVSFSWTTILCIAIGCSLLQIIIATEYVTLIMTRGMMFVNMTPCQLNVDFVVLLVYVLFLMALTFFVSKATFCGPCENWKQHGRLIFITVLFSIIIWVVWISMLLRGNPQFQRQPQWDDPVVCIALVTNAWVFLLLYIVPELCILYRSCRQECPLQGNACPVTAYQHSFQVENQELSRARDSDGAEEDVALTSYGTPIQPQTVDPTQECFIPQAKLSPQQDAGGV
Put plainly: flow cytometry on 293T-huGPRC5D cells.

B1: huHA68-4-CD3ScFv (bispecific antibody)
heavy 1: EVQLVETGGGLIQPGGSLRLSCAASGFTFSPSAMSWARQAPGKGLEWVSGIYGDGKAEYADSVKGRFTISRDNSKNTVYLQMNSLRAEDTAVYSCAVGIRPTDAPWAASLRGQGTLVTVSSEPKSSDKTHTCPPCPAPEAAGGPSVFLFPPKPKDTLMISRTPEVTCVVVAVSHEDPEVKFNWYVDGVEVHNAKTKPREEQYNSTYRVVSVLTVLHQDWLNGKEYKCKVSNKALAAPIEKTISKAKGQPREPQVCTLPPSRDELTKNQVSLSCAVKGFYPSDIAVEWESNGQPENNYKTTPPVLDSDGSFFLVSKLTVDKSRWQQGNVFSCSVMHEALHNHYTQKSLSLSPGK
heavy 2: not shown
notes: HC1 huHA68-4-hole; HC2 CD3ScFv-knob; also called anti-CD3/BCMA bispecific antibody; diabody
For B1, the binding result in assay [1] was “binds”.

B2: 269B094 (a fully human monoclonal antibody targeting BCMA) (antibody, V domains shown)
VH: DVQLVESGGGLVQPGGSLRLSCAASGRTFSSIVMGWFRQAPGKEREFVGAIMWNDGITYLQDSVKGRFTIFRDNAKNTVYLQMNSLKLEDTAVYYCAASKGRYSEYEYWGQGTQVTVSS
notes: also called control antibody; control sample
In assay [2], B2 registered a Kd of 1510 pM, a koff of 0.00155 s⁻¹ and a kon of 1e+06 M⁻¹ s⁻¹.

B3: huBH56-3-IgG (antibody, V domains shown)
VH: EVQVVESGGGLIQPGGSLRLSCAASGFTFAPSAMSWARQPPGKEVEWVSGIYGDGRTTYADSVKGRFTISRDNSKNTVYLQMNSLRAEDTAVYYCVVGIRLLSESWAQALRGQGTQVTVSS
notes: Humanized VHH-Fc heavy-chain antibody; Fc with L234A, L235A, D265A, P329A
On to B3, for which, in assay [2], the Kd is less than 1 pM, the koff was less than 1e-07 s⁻¹ and the kon was 1e+06 M⁻¹ s⁻¹.

B4: huBH56-4-IgG (antibody, V domains shown)
VH: EVQLVESGGGLIQPGGSLRLSCAASGFTFAPSAMSWARQPPGKEVEWVSGIYGDGRTYYADSVKGRFTISRDNSKNTVYLQMNSLRAEDTAVYYCVVGIRLLSESWAQALRGQGTQVTVSS
notes: Humanized VHH-Fc heavy-chain antibody
In assay [2], B4 had a dissociation constant Kd of less than 1 pM, an off-rate (koff) of less than 1e-07 s⁻¹ and a kon of 1e+06 M⁻¹ s⁻¹.

B5: huBH56-6-IgG (antibody, V domains shown)
VH: EVQLVESGGGLIQPGGSLRLSCAASGFTFAPSAMSWARQPPGKGLEWVSGIYGDGRTYYADSVKGRFTISRDNSKNTVYLQMNSLRAEDTAVYYCVVGIRLLSESWAQALRGQGTQVTVSS
notes: as for B4
In assay [2], B5 yielded a Kd of less than 1 pM, an off-rate (koff) of less than 1e-07 s⁻¹ and a kon of 979000 M⁻¹ s⁻¹.

B6: huBH56-5-IgG (antibody, V domains shown)
VH: EVQVVESGGGLIQPGGSLRLSCAASGFTFAPSAMSWARQPPGKEVEWVSGIYGDGRTTYADSVKGRFTISRDNSKNTVYLQMNSLRAEDTAVYICVVGIRLLSESWAQALRGQGTQVTVSS
notes: as for B4
In assay [2], B6 returned a Kd of less than 1 pM, a koff of less than 1e-07 s⁻¹ and an association rate constant (kon) of 1e+06 M⁻¹ s⁻¹.

B7: humanized anti-GPRC5D VHH-Fc antibody 8H5 (antibody, human IgG1, V domains shown)
VH: EVQLLESGGGLVQPGGSLRLSCAASGIFLSASVMSWYRQAPGKQRELVASMLNSNTNYADSVKGRFTISRDNSKNTMYLQMNSLRAEDTAVYYCNAERSGVYWGQGTQVTVSS
notes: also called hu8H5; humanized anti-GPRC5D VHH 8H5-Fc
As for B7, the binding result in assay [3] is “binds”.

B8: 2xhuHA68-4-CD3ScFv (bispecific antibody)
heavy 1: EVQLVETGGGLIQPGGSLRLSCAASGFTFSPSAMSWARQAPGKGLEWVSGIYGDGKAEYADSVKGRFTISRDNSKNTVYLQMNSLRAEDTAVYSCAVGIRPTDAPWAASLRGQGTLVTVSSGGGGSEVQLVETGGGLIQPGGSLRLSCAASGFTFSPSAMSWARQAPGKGLEWVSGIYGDGKAEYADSVKGRFTISRDNSKNTVYLQMNSLRAEDTAVYSCAVGIRPTDAPWAASLRGQGTLVTVSSEPKSSDKTHTCPPCPAPEAAGGPSVFLFPPKPKDTLMISRTPEVTCVVVAVSHEDPEVKFNWYVDGVEVHNAKTKPREEQYNSTYRVVSVLTVLHQDWLNGKEYKCKVSNKALAAPIEKTISKAKGQPREPQVCTLPPSRDELTKNQVSLSCAVKGFYPSDIAVEWESNGQPENNYKTTPPVLDSDGSFFLVSKLTVDKSRWQQGNVFSCSVMHEALHNHYTQKSLSLSPGK
heavy 2: not shown
notes: HC1 carries two huHA68-4 VHHs in tandem (GGGGS linker) on Fc hole; HC2 is CD3ScFv-knob; also called anti-CD3/BCMA bispecific antibody; diabody
As for B8, in assay [1], the binding result was “binds”.

B9: 2xhuBH56-3-CD3ScFv (bispecific antibody)
heavy 1: EVQVVESGGGLIQPGGSLRLSCAASGFTFAPSAMSWARQPPGKEVEWVSGIYGDGRTTYADSVKGRFTISRDNSKNTVYLQMNSLRAEDTAVYYCVVGIRLLSESWAQALRGQGTQVTVSSGGGGSEVQVVESGGGLIQPGGSLRLSCAASGFTFAPSAMSWARQPPGKEVEWVSGIYGDGRTTYADSVKGRFTISRDNSKNTVYLQMNSLRAEDTAVYYCVVGIRLLSESWAQALRGQGTQVTVSSEPKSSDKTHTCPPCPAPEAAGGPSVFLFPPKPKDTLMISRTPEVTCVVVAVSHEDPEVKFNWYVDGVEVHNAKTKPREEQYNSTYRVVSVLTVLHQDWLNGKEYKCKVSNKALAAPIEKTISKAKGQPREPQVCTLPPSRDELTKNQVSLSCAVKGFYPSDIAVEWESNGQPENNYKTTPPVLDSDGSFFLVSKLTVDKSRWQQGNVFSCSVMHEALHNHYTQKSLSLSPGK
heavy 2: not shown
notes: HC1 carries two huBH56-3 VHHs in tandem (GGGGS linker) on Fc hole; HC2 is CD3ScFv-knob; also called anti-CD3/BCMA bispecific antibody; diabody
B9: the binding result in assay [1] was “binds”.

B10: BH56-IgG (antibody, V domains shown)
VH: EVQVVESGGGLVQAGESLTLSCAASGFTFAPSAMSWARQPPGKEVEWVSGIYGDGRTTYADSVKGRFTISRDNAKKTVTLQMNNLEPEDSGNYICVVGIRLLSESWAQALRGQGTQVTVSS
notes: also called anti-human BCMA chimeric antibody
For B10, in assay [2], the dissociation constant Kd was less than 1 pM, the koff is less than 1e-07 s⁻¹ and the kon is 1e+06 M⁻¹ s⁻¹.

B11: huBH56-3-CD3ScFv (bispecific antibody)
heavy 1: EVQVVESGGGLIQPGGSLRLSCAASGFTFAPSAMSWARQPPGKEVEWVSGIYGDGRTTYADSVKGRFTISRDNSKNTVYLQMNSLRAEDTAVYYCVVGIRLLSESWAQALRGQGTQVTVSSEPKSSDKTHTCPPCPAPEAAGGPSVFLFPPKPKDTLMISRTPEVTCVVVAVSHEDPEVKFNWYVDGVEVHNAKTKPREEQYNSTYRVVSVLTVLHQDWLNGKEYKCKVSNKALAAPIEKTISKAKGQPREPQVCTLPPSRDELTKNQVSLSCAVKGFYPSDIAVEWESNGQPENNYKTTPPVLDSDGSFFLVSKLTVDKSRWQQGNVFSCSVMHEALHNHYTQKSLSLSPGK
heavy 2: not shown
notes: HC1 huBH56-3-hole (VHH, EPKSS, Fc hole); HC2 CD3ScFv-knob (CD3 VH, linker, CD3 VL, EPKSS, Fc knob); also called anti-CD3/BCMA bispecific antibody; diabody
As to B11, the binding result in assay [1] is “binds”.

B12: huHA68-4-IgG (antibody, V domains shown)
VH: EVQLVETGGGLIQPGGSLRLSCAASGFTFSPSAMSWARQAPGKGLEWVSGIYGDGKAEYADSVKGRFTISRDNSKNTVYLQMNSLRAEDTAVYSCAVGIRPTDAPWAASLRGQGTLVTVSS
notes: as for B4
In assay [2], B12 returned a Kd of less than 1 pM, a koff of less than 1e-07 s⁻¹ and a kon of 1e+06 M⁻¹ s⁻¹.

B13: HA68-IgG (antibody, V domains shown)
VH: QVQLVETGGGLVQPGGSLRLSCAASGFTFSPSAMNWARQAPGKGLEWVAGIYGDGKAEYADSVKGRFTISRDNAKNMVYLQMVNLRPEDTAVYSCAVGIRPTDAPWAASLRGQGTQVTVSS
notes: as for B10
In assay [2], B13 gave a Kd of less than 1 pM, a koff of less than 1e-07 s⁻¹ and an on-rate constant (kon) of 1e+06 M⁻¹ s⁻¹.

B14: huHA68-3-IgG (antibody, V domains shown)
VH: EVQLVETGGGLIQPGGSLRLSCAASGFTFSPSAMSWARQAPGKGLEWVSGIYGDGKAEYADSVKGRFTISRDNSKNTVYLQMNSLRAEDTAVYYCAVGIRPTDAPWAASLRGQGTLVTVSS
notes: as for B4
Consider B14, for which, in assay [2], the Kd was less than 1 pM, the dissociation rate constant (koff) is less than 1e-07 s⁻¹ and the on-rate (kon) came out at 1e+06 M⁻¹ s⁻¹.
